The text below walks through data of paper PMC6823378, “Clathrin light chain A drives selective myosin VI recruitment to clathrin-coated pits under membrane tension” (Nature Communications, 2019).

The labels stand for the following.
T1: myosin VI^998–1131 of the long isoform (myosin VI_(long)), cleaved from GST and purified (human, UniProt Q9UM54 998-1131)
T1 chain: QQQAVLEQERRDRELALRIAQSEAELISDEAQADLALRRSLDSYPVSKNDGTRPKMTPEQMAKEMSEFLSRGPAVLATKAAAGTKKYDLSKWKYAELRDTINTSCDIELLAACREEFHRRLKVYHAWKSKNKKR

T2: His-Hip1R coiled-coil region (amino acids 346–655) (UniProt O75146 346-655)
T2 construct: also called His-Hip1R^346–655; Hip1R^346–655; source: bacterially purified (pRSF-duet)
T2 sequence (looked up): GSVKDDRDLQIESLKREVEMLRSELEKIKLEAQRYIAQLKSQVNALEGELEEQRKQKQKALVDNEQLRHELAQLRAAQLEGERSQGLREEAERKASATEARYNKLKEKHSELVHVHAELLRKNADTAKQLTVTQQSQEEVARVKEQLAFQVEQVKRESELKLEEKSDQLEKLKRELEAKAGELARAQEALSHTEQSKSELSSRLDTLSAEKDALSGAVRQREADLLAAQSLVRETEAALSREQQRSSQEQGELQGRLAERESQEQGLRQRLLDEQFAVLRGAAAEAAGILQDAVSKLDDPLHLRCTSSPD

T3: myosin VI^1069–1131 (human, UniProt Q9UM54 1069-1131)
T3 chain: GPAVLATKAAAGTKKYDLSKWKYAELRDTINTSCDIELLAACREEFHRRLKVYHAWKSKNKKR

T4: 5-carboxyfluorescein (5-FAM)-conjugated CLCa peptide 51–66 (human, UniProt P09496 51-66, also: 5-FAM conjugated, site not given here)
T4 construct: clathrin light chain A (CLCa), human, amino acids 51–66; source: synthetic peptide (GenScript)
T4 peptide (looked up): AFAILDGGAPGPQPHG

T5: 5-carboxyfluorescein (5-FAM)-conjugated CLCa peptide 51–61 (human, UniProt P09496 51-61, also: 5-FAM conjugated, site not given here)
T5 construct: clathrin light chain A (CLCa), human, amino acids 51–61; source: synthetic peptide (GenScript)
T5 peptide (looked up): AFAILDGGAPG

B1: GST-CLCa fragment of amino acids 47–97 (domain or fragment, human, UniProt P09496 47-97, looked up)
chain: ENDEAFAILDGGAPGPQPHGEPPGGPDAVDGVMNGEYYQESNGPTDSYAAI
notes: clathrin light chain A (CLCa), human, amino acids 47–97; also called CLCa 47–97; source: E. coli Rosetta (DE3), on glutathione-sepharose beads
B2: CLCa full length, bacterially produced (ITC; reconstitution of cages) (natural protein, human, UniProt P09496 1-248, looked up)
chain: MAELDPFGAPAGAPGGPALGNGVAGAGEEDPAAAFLAQQESEIAGIENDEAFAILDGGAPGPQPHGEPPGGPDAVDGVMNGEYYQESNGPTDSYAAISQVDRLQSEPESIRKWREEQMERLEALDANSRKQEAEWKEKAIKELEEWYARQDEQLQKTKANNRVADEAFYKQPFADVIGYVTNINHPCYSLEQAAEEAFVNDIDESSPGTEWERVARLCDFNPKSSKQAKDVSRMRSVLISLKQAPLVH
notes: clathrin light chain A (CLCa), human; Cleavage from GST is told for the cage reconstitution; also called CLCa FL; CLCa WT; source: bacterially produced and cleaved from GST, purified
B3: CLCa I54D full length (ITC) (natural protein, human, UniProt P09496 1-248, looked up)
chain: B2 chain with I54D
notes: clathrin light chain A (CLCa), human, I54D
B4: myosin VI^1050–1131 of the long isoform, cleaved from GST and purified (domain or fragment, human, UniProt Q9UM54 1050-1131, looked up)
chain: RPKMTPEQMAKEMSEFLSRGPAVLATKAAAGTKKYDLSKWKYAELRDTINTSCDIELLAACREEFHRRLKVYHAWKSKNKKR
notes: 15N- or 13C,15N-labelled in some NMR samples; also called Myo6; source: E. coli Rosetta (DE3) or BL21 (DE3), GST fusion cleaved with PreScission Protease, purified (ion exchange or SEC)
B5: CLCa^46–61, recombinant, cleaved from GST (for the NMR structure) (peptide, UniProt P09496 46-61, looked up)
peptide: IENDEAFAILDGGAPG
notes: clathrin light chain A (CLCa), human, amino acids 46–61; 13C,15N-labelled in one of the two samples; source: E. coli BL21 (DE3), GST fusion cleaved with PreScission Protease in the presence of myosin VI, purified (SEC)
B6: 5-carboxyfluorescein (5-FAM)-conjugated CLCa peptide 46–61 (peptide, UniProt P09496 46-61, looked up)
peptide: 5FAM-IENDEAFAILDGGAPG
notes: clathrin light chain A (CLCa), human, amino acids 46–61; also called CLCa^46–61; source: synthetic peptide (GenScript)
B7: myosin VI^998–1131 of the long isoform (myosin VI_(long)), cleaved from GST and purified (domain or fragment, human, UniProt Q9UM54 998-1131, looked up)
chain: T1 chain
notes: source: E. coli Rosetta (DE3), GST fusion cleaved with PreScission Protease, purified (ion exchange)

Changes are numbered by the printed parent chain. Numbers in names are those of the source. Ends that are not written are not given here. * marks the point of attachment. 5FAM = O=C1OC2(c3ccc(O)cc3Oc3cc(O)ccc32)c2ccc(C(=O)*)cc21

The target in assay [1] is 5-carboxyfluorescein (5-FAM)-conjugated CLCa peptide 46–61 (human) (UniProt P09496). Description: fluorescence polarisation; 20–50 nM 5-FAM-conjugated CLCa peptide titrated with purified myosin VI fragment from ~150 µM, 22 °C, 384-well plate. For orientation: Polarisation of emitted light reports the rotation of a fluorescent probe.
Assay [2] has as its target myosin VI^1050–1131 of the long isoform, cleaved from GST and purified (UniProt Q9UM54). Description: GST pull-down, Coomassie, band quantitation. The following applies: parent: est. 23; read off a plot.
Assay [3] concerns the target T1, myosin VI^998–1131 of the long isoform …. Description: FP.
Assay [4] has as its target B7. Description: pull-down; GST-CLC proteins (1.5 μM) on glutathione sepharose beads incubated 1 h at 4 °C in JS buffer with cleaved and purified myosin VI fragments; SDS-PAGE, Coomassie. The following applies: both partners purified.
The target of assay [5] is T2, His-Hip1R coiled-coil region (amino …). Description: ITC; 380 µM CLCa WT or I54D titrated into 20 µM Hip1R^346–655 or myosin VI^1050–1131 in the cell; 20 mM Tris-HCl pH 8.0, 150 mM NaCl, 2.5% glycerol, 25 °C; one-set-of-sites model. Conditions: both partners purified. Background: In ITC the heat of successive injections is recorded.
Assay [6] deals with B4. The assay is described as above. The following applies: both partners purified.
Assay [7] has as its target B2. Described as above. The following applies: both partners purified.
Assay [8] deals with B4. The experiment in a line: NMR structure; complex of myosin VI^1050–1131 and CLCa^46–61, 221 intermolecular NOEs; 10 °C, 20 mM NaPO4 pH 6.5, 50 mM NaCl, 2 mM DTT. The following applies: both partners purified.
For the next assay, the target named is T3, myosin VI^1069–1131. The experiment in a line: FP.
Assay [9] deals with B7. The experiment in a line: fluorescence polarisation; 20–50 nM 5-FAM-conjugated CLCa peptide titrated with purified myosin VI fragment from ~150 µM, 22 °C, 384-well plate. The following applies: both partners purified.
For assay [10], the target named is B4. Described as above. Conditions: both partners purified.
For assay [11], the target named is T4, 5-carboxyfluorescein (5-FAM)-conjugated …. The description is as above. The following applies: both partners purified.
The target of assay [12] is T5, 5-carboxyfluorescein (5-FAM)-conjugated …. The description is as above. Conditions: both partners purified.

Sequence of myosin VI^1050–1131 of the long isoform, cleaved from GST and purified (UniProt Q9UM54) (Q9UM54 whole entry, looked up, tested part not stated, canonical isoform): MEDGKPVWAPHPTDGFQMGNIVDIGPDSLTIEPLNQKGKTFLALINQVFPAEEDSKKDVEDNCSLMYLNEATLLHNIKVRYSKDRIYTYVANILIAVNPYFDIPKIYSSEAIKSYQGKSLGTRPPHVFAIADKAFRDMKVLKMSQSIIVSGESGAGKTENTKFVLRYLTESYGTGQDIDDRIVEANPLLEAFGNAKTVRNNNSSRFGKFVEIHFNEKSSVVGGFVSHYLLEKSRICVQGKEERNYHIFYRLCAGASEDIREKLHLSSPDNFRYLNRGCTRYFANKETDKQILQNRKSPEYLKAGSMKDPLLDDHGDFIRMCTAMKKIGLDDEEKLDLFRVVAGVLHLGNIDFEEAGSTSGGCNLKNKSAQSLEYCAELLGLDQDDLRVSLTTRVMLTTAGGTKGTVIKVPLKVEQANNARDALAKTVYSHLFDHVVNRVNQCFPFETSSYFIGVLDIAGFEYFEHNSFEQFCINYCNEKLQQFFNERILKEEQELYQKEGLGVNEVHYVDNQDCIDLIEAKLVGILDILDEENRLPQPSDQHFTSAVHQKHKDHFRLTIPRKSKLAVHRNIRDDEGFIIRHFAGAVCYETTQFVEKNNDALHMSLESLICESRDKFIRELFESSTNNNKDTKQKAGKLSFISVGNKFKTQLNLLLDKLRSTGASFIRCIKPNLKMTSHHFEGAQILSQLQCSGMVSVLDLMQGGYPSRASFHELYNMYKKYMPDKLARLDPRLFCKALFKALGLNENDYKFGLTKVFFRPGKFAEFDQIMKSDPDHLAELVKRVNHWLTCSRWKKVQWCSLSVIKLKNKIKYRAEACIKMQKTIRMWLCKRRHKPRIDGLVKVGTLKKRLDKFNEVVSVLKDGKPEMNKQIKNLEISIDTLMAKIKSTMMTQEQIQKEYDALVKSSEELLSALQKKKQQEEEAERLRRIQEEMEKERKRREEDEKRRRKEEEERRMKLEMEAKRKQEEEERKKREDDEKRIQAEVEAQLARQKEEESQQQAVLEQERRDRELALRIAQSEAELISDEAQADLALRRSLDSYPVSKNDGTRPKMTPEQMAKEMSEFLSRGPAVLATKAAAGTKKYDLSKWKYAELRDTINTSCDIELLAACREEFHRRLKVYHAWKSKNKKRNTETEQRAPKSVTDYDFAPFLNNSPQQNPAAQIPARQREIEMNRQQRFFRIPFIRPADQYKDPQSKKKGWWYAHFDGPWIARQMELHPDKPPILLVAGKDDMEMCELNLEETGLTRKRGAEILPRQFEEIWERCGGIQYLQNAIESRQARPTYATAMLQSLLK

In the case of “myosin VI^998–1131 of the short isoform (myosin VI_(short)), cleaved from GST and purified (domain or fragment)”, in [1], the Kd came to 96000 nM.
Take GST-CLCa 46–61 WT I54D: the response in [2] is 3 % of binding.
Take “myosin VI Y1121A mutant used for FP analysis (domain or fragment)”: the difference in binding affinity against the wild type in [1] came to 2 log-fold.
On to AFAILDGGAPG (also: 5-FAM conjugated, site not given here) [5-carboxyfluorescein (5-FAM)-conjugated CLCa peptide 51–61], for which, in assay [3], the Kd came out at 22600 nM.
With B1, the binding result in [4] is “binds”.
Take AFAILDGGAPGPQPHG (also: 5-FAM conjugated, site not given here) [5-carboxyfluorescein (5-FAM)-conjugated CLCa peptide 51–66]: in assay [3], the Kd amounted to 13100 nM.
Regarding B2, in assay [5], the Kd was 1370 nM, the dH is -9.7 kcal/mol and the “stoichiometry N” value amounted to 1.15 sites. For the same molecule, in [6], the dH was -11.6 kcal/mol and the “stoichiometry N” value is 0.79 sites.
For B3, in [5], the affinity, expressed as Kd, was 990 nM; the dH is -8.72 kcal/mol; the “stoichiometry N” value came to 1.01 sites.
B4 registered a Kd in assay [7] of 90 nM.
Consider B5, for which the binding result in [8] is “binds”.
As for B6, the Kd is 22000 nM with myosin VI^1069–1131, 930 nM in [9] and 400 nM in assay [10].
As for B7, the “fold higher affinity of peptide 46–61 than of this peptide” value in assay [11] and in assay [12] was 10 fold in each case.

What is called Kd is the constant that tells how readily two partners part at equilibrium. A higher Kd goes with weaker binding. Usually stoichiometry N stands for the number of molecules, sites or subunits per partner or assembly.
